The record followed here is patent US20180002435A1 (CELLECTIS, published 2018).

T1: recombinant BCMA protein fused to an FC fragment (SEQ ID NO 151)
T1 construct: also called BCMA-Fc fusion protein
T1 chain: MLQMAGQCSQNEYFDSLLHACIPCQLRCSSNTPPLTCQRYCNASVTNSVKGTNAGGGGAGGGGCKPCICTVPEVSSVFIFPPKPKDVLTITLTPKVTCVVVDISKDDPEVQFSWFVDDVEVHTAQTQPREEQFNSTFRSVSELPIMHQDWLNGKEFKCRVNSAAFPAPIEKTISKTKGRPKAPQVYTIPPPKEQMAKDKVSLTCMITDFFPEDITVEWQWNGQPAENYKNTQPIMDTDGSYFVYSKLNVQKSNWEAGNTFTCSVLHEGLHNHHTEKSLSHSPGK

B1: anti-BCMA CAR of SEQ ID NO 138 (other)
chain: GGGGSCPYSNPSLCSGGGGSGGGGSEVQLLESGGGLVQPGGSLRLSCAASGFTFSSYAMNWVRQAPGKGLEWVSAILSSGGSTYYADSVKGRFTISRDNSKNTLYLQMNSLRAEDTAVYYCARYWPMDIWGQGTLVTVSSGGGGGSCPYSNPSLCSGGGGGSEIVLTQSPGTLSLSPGERATLSCRGGQSVSSSYLAWYQQKPGQAPRLLMYDASIRATGIPDRFSGSGSGTDFTLTISRLEPEDFAVYYCQQYQSWPLTFGQGTKVEIKSDPGSGGGGSCPYSNPSLCSGGGGSAPTTTPAPRPPTPAPTIASQPLSLRPEACRPAAGGAVHTRGLDFACDIYIWAPLAGTCGVLLLSLVITLYCRRGRKKLLYIFKQPFMRPVQTTQEEDGCSCRFPEEEEGGCELRVKFSRSADAPAYQQGQNQLYNELNLGRREEYDVLDKRRGRDPEMGGKPRRKNPQEGLYNELQKDKMAEAYSEIGMKGERRRGKGHDGLYQGLSTATKDTYDALHMQALPPRE
notes: Single-chain CAR on primary T cells
B2: anti-BCMA CAR of SEQ ID NO 133 (other)
chain: GGGGSCPYSNPSLCSGGGGSGGGGSEVQLLESGGGLVQPGGSLRLSCAASGFTFSSYAMNWVRQAPGKGLEWVSAILSSGGSTYYADSVKGRFTISRDNSKNTLYLQMNSLRAEDTAVYYCARYWPMDIWGQGTLVTVSSGGGGGSCPYSNPSLCSGGGGGSEIVLTQSPGTLSLSPGERATLSCRGGQSVSSSYLAWYQQKPGQAPRLLMYDASIRATGIPDRFSGSGSGTDFTLTISRLEPEDFAVYYCQQYQSWPLTFGQGTKVEIKSDPTTTPAPRPPTPAPTIASQPLSLRPEACRPAAGGAVHTRGLDFACDIYIWAPLAGTCGVLLLSLVITLYCRRGRKKLLYIFKQPFMRPVQTTQEEDGCSCRFPEEEEGGCELRVKFSRSADAPAYQQGQNQLYNELNLGRREEYDVLDKRRGRDPEMGGKPRRKNPQEGLYNELQKDKMAEAYSEIGMKGERRRGKGHDGLYQGLSTATKDTYDALHMQALPPRE
notes: as for B1
B3: anti-BCMA CAR of SEQ ID NO 137 (other)
chain: GGGGSCPYSNPSLCSGGGGSGGGGSEVQLLESGGGLVQPGGSLRLSCAASGFTFSSYAMNWVRQAPGKGLEWVSAILSSGGSTYYADSVKGRFTISRDNSKNTLYLQMNSLRAEDTAVYYCARYWPMDIWGQGTLVTVSSGGSCPYSNPSLCSGGSEIVLTQSPGTLSLSPGERATLSCRGGQSVSSSYLAWYQQKPGQAPRLLMYDASIRATGIPDRFSGSGSGTDFTLTISRLEPEDFAVYYCQQYQSWPLTFGQGTKVEIKSDPGSGGGGSCPYSNPSLCSGGGGSAPTTTPAPRPPTPAPTIASQPLSLRPEACRPAAGGAVHTRGLDFACDIYIWAPLAGTCGVLLLSLVITLYCRRGRKKLLYIFKQPFMRPVQTTQEEDGCSCRFPEEEEGGCELRVKFSRSADAPAYQQGQNQLYNELNLGRREEYDVLDKRRGRDPEMGGKPRRKNPQEGLYNELQKDKMAEAYSEIGMKGERRRGKGHDGLYQGLSTATKDTYDALHMQALPPRE
notes: as for B1
B4: anti-BCMA CAR of SEQ ID NO 134 (other)
chain: EVQLLESGGGLVQPGGSLRLSCAASGFTFSSYAMNWVRQAPGKGLEWVSAILSSGGSTYYADSVKGRFTISRDNSKNTLYLQMNSLRAEDTAVYYCARYWPMDIWGQGTLVTVSSGGSCPYSNPSLCSGGSEIVLTQSPGTLSLSPGERATLSCRGGQSVSSSYLAWYQQKPGQAPRLLMYDASIRATGIPDRFSGSGSGTDFTLTISRLEPEDFAVYYCQQYQSWPLTFGQGTKVEIKSDPGSGGGGSCPYSNPSLCSGGGGSAPTTTPAPRPPTPAPTIASQPLSLRPEACRPAAGGAVHTRGLDFACDIYIWAPLAGTCGVLLLSLVITLYCRRGRKKLLYIFKQPFMRPVQTTQEEDGCSCRFPEEEEGGCELRVKFSRSADAPAYQQGQNQLYNELNLGRREEYDVLDKRRGRDPEMGGKPRRKNPQEGLYNELQKDKMAEAYSEIGMKGERRRGKGHDGLYQGLSTATKDTYDALHMQALPPRE
notes: as for B1
B5: anti-BCMA CAR of SEQ ID NO 135 (other)
chain: EVQLLESGGGLVQPGGSLRLSCAASGFTFSSYAMNWVRQAPGKGLEWVSAILSSGGSTYYADSVKGRFTISRDNSKNTLYLQMNSLRAEDTAVYYCARYWPMDIWGQGTLVTVSSGGGGGSCPYSNPSLCSGGGGGSEIVLTQSPGTLSLSPGERATLSCRGGQSVSSSYLAWYQQKPGQAPRLLMYDASIRATGIPDRFSGSGSGTDFTLTISRLEPEDFAVYYCQQYQSWPLTFGQGTKVEIKSDPGSGGGGSCPYSNPSLCSGGGGSAPTTTPAPRPPTPAPTIASQPLSLRPEACRPAAGGAVHTRGLDFACDIYIWAPLAGTCGVLLLSLVITLYCRRGRKKLLYIFKQPFMRPVQTTQEEDGCSCRFPEEEEGGCELRVKFSRSADAPAYQQGQNQLYNELNLGRREEYDVLDKRRGRDPEMGGKPRRKNPQEGLYNELQKDKMAEAYSEIGMKGERRRGKGHDGLYQGLSTATKDTYDALHMQALPPRE
notes: as for B1
B6: anti-BCMA CAR of SEQ ID NO 136 (other)
chain: GGGGSCPYSNPSLCSGGGGSGGGGSEVQLLESGGGLVQPGGSLRLSCAASGFTFSSYAMNWVRQAPGKGLEWVSAILSSGGSTYYADSVKGRFTISRDNSKNTLYLQMNSLRAEDTAVYYCARYWPMDIWGQGTLVTVSSGGGGSGGGGSGGGGSEIVLTQSPGTLSLSPGERATLSCRGGQSVSSSYLAWYQQKPGQAPRLLMYDASIRATGIPDRFSGSGSGTDFTLTISRLEPEDFAVYYCQQYQSWPLTFGQGTKVEIKSDPGSGGGGSCPYSNPSLCSGGGGSAPTTTPAPRPPTPAPTIASQPLSLRPEACRPAAGGAVHTRGLDFACDIYIWAPLAGTCGVLLLSLVITLYCRRGRKKLLYIFKQPFMRPVQTTQEEDGCSCRFPEEEEGGCELRVKFSRSADAPAYQQGQNQLYNELNLGRREEYDVLDKRRGRDPEMGGKPRRKNPQEGLYNELQKDKMAEAYSEIGMKGERRRGKGHDGLYQGLSTATKDTYDALHMQALPPRE
notes: as for B1
B7: anti-BCMA CAR of SEQ ID NO 131 (other)
chain: EVQLLESGGGLVQPGGSLRLSCAASGFTFSSYAMNWVRQAPGKGLEWVSAILSSGGSTYYADSVKGRFTISRDNSKNTLYLQMNSLRAEDTAVYYCARYWPMDIWGQGTLVTVSSGGGGGSCPYSNPSLCSGGGGGSEIVLTQSPGTLSLSPGERATLSCRGGQSVSSSYLAWYQQKPGQAPRLLMYDASIRATGIPDRFSGSGSGTDFTLTISRLEPEDFAVYYCQQYQSWPLTFGQGTKVEIKSDPTTTPAPRPPTPAPTIASQPLSLRPEACRPAAGGAVHTRGLDFACDIYIWAPLAGTCGVLLLSLVITLYCRRGRKKLLYIFKQPFMRPVQTTQEEDGCSCRFPEEEEGGCELRVKFSRSADAPAYQQGQNQLYNELNLGRREEYDVLDKRRGRDPEMGGKPRRKNPQEGLYNELQKDKMAEAYSEIGMKGERRRGKGHDGLYQGLSTATKDTYDALHMQALPPRE
notes: as for B1
B8: anti-BCMA CAR of SEQ ID NO 132 (other)
chain: GGGGSCPYSNPSLCSGGGGSGGGGSEVQLLESGGGLVQPGGSLRLSCAASGFTFSSYAMNWVRQAPGKGLEWVSAILSSGGSTYYADSVKGRFTISRDNSKNTLYLQMNSLRAEDTAVYYCARYWPMDIWGQGTLVTVSSGGSCPYSNPSLCSGGSEIVLTQSPGTLSLSPGERATLSCRGGQSVSSSYLAWYQQKPGQAPRLLMYDASIRATGIPDRFSGSGSGTDFTLTISRLEPEDFAVYYCQQYQSWPLTFGQGTKVEIKSDPTTTPAPRPPTPAPTIASQPLSLRPEACRPAAGGAVHTRGLDFACDIYIWAPLAGTCGVLLLSLVITLYCRRGRKKLLYIFKQPFMRPVQTTQEEDGCSCRFPEEEEGGCELRVKFSRSADAPAYQQGQNQLYNELNLGRREEYDVLDKRRGRDPEMGGKPRRKNPQEGLYNELQKDKMAEAYSEIGMKGERRRGKGHDGLYQGLSTATKDTYDALHMQALPPRE
notes: as for B1
B9: anti-BCMA CAR of SEQ ID NO 130 (other)
chain: EVQLLESGGGLVQPGGSLRLSCAASGFTFSSYAMNWVRQAPGKGLEWVSAILSSGGSTYYADSVKGRFTISRDNSKNTLYLQMNSLRAEDTAVYYCARYWPMDIWGQGTLVTVSSGGSCPYSNPSLCSGGSEIVLTQSPGTLSLSPGERATLSCRGGQSVSSSYLAWYQQKPGQAPRLLMYDASIRATGIPDRFSGSGSGTDFTLTISRLEPEDFAVYYCQQYQSWPLTFGQGTKVEIKSDPTTTPAPRPPTPAPTIASQPLSLRPEACRPAAGGAVHTRGLDFACDIYIWAPLAGTCGVLLLSLVITLYCRRGRKKLLYIFKQPFMRPVQTTQEEDGCSCRFPEEEEGGCELRVKFSRSADAPAYQQGQNQLYNELNLGRREEYDVLDKRRGRDPEMGGKPRRKNPQEGLYNELQKDKMAEAYSEIGMKGERRRGKGHDGLYQGLSTATKDTYDALHMQALPPRE
notes: as for B1

The assay has as its target T1, recombinant BCMA protein fused to an FC …. The experiment in a line: flow cytometry of CAR T cells, BCMA-Fc and PE labeled anti-FC antibody. As to the method:
The CDC assay consisted in incubating 0.2 10⁶ transfected cells either alone, or in the presence of Rituximab (RTX, ROCHE, 400 ng) and Babby Rabbit Complement (BRC, AbD Serotec, ref#C12CA, 100 μL of the solution diluted according to the manufacturer protocol) for 2 hours at 37° C. in a final volume of 400 μL of Xvivo 10% FBS. At the end of incubation, anti BCMA-CAR T cells were recovered and labeled with recombinant BCMA protein fused to an FC fragment (SEQ ID NO 151) and a PE labeled anti-FC secondary monoclonal antibody (Jackson ImmunoResearch, ref#115-115-164, diluted 1/200). Cells were then recovered in PFA 4% before being analyzed by flow cytometry. The flow cytometry gating strategy was to determine the viability of anti-BCMA CAR positive T cells (PE positive cells) among the singlet found in the total population of cells. This analysis was performed on cells incubated alone and in the presence of RTX and BRC. Results are expressed as the ratio named “Relative frequency of viable cells among BCMA CAR positive T cells (with respect to control experiment)” described below: […]
Background: A flow cytometer gives signals particle by particle.
Regarding B1, the binding result is listed as “binds”. Next, B2: “binds”; B3: “binds”; B4: “binds”. Next, B5: “binds”; B6: “binds”.

As to B7, the binding result is listed as “binds”.

In the case of B8, the binding result is “binds”.

As for B9, the binding result is “binds”.
